Assay results taken from paper PMC3268024, “Role of Linkers between Zinc Fingers in Spacing Recognition by Plant TFIIIA-Type Zinc-Finger Proteins”.

biological target: T1, ZPT2-14ZF (UniProt O22086 41-117); assay: EMSA; 25 mM HEPES-KOH pH 7.6, 40 mM KCl, 0.1% NP-40, 10 uM ZnCl2, 1 mg/mL BSA, 10% glycerol, 10 ug/mL poly(dI-dC), 1 mM DTT, 0.15 nM probe, 25 min at 20 C; conditions: protein: recombinant; tags: MBP fusion cleaved with TEV protease; untagged; label: 32P end
T1 sequence: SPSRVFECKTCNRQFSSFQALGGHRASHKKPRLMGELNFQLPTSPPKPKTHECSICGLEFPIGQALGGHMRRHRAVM

Binder | Kd [nM]
AGT-5-AGT (dsDNA) DNA 1: CTCGAGAAATTTCCCGGAATTCCAGTGATCCAGTGGCCGGAATTTCCCGGGGGGATCC DNA 2: GGATCCCCCCGGGAAATTCCGGCCACTGGATCACTGGAATTCCGGGAAATTTCTCGAG | 9.1 ± 1.2
AGT-5-ACT (dsDNA) DNA 1: CTCGAGAAATTTCCCGGAATTCCAGTGATCCACTGGCCGGAATTTCCCGGGGGGATCC DNA 2: GGATCCCCCCGGGAAATTCCGGCCAGTGGATCACTGGAATTCCGGGAAATTTCTCGAG | 21.7 ± 3.4
AGT-10-ACT (dsDNA) DNA 1: CTCGAGAAATTTCCCGGAATTCCAGTGGGAAATTTCACTGGCCGGAATTTCCCGGGGGGATCC DNA 2: GGATCCCCCCGGGAAATTCCGGCCAGTGAAATTTCCCACTGGAATTCCGGGAAATTTCTCGAG | 10.4 ± 1.6
ACT-10-AGT (dsDNA) DNA 1: CTCGAGAAATTTCCCGGAATTCCACTGGGAAATTTCAGTGGCCGGAATTTCCCGGGGGGATCC DNA 2: GGATCCCCCCGGGAAATTCCGGCCACTGAAATTTCCCAGTGGAATTCCGGGAAATTTCTCGAG | 11.6 ± 1.9
